Experimental data published in patent US12630600B2 (MEDIMMUNE LIMITED, priority 2022, dated 2026).
Starred links: 1 amine or outer side, 2 acyl side, 3 side chain; linkers in the order of their positions; H or OH if unused. Non-standard residues stand in square brackets, D forms with d. Groups on a side chain read outwards from the residue. No end group written: not given here. *: point of attachment. C20 diacid = O=C(O)CCCCCCCCCCCCCCCCCCC(=O)*; C18 diacid = O=C(O)CCCCCCCCCCCCCCCCC(=O)*; γGlu = O=C(O)[C@H](CCC(=O)[*:2])N[*:1]; αMeF = C[C@](N)(Cc1ccccc1)C(=O)O; AEEA = NCCOCCOCC(=O)O; Aib = CC(C)(N)C(=O)O

B1: Peptide 439 (peptide)
peptide: H[Aib]QGTFTSDVSK[αMeF]LDRK([AEEA-AEEA-γGlu-C18 diacid])RAQDFVRWLL[Aib]E-NH2
modifications: N-terminus assumed
SMILES: CC(C)C[C@H](NC(=O)[C@H](Cc1c[nH]c2ccccc12)NC(=O)[C@H](CCCNC(=N)N)NC(=O)[C@@H](NC(=O)[C@H](Cc1ccccc1)NC(=O)[C@H](CC(=O)O)NC(=O)[C@H](CCC(N)=O)NC(=O)[C@H](C)NC(=O)[C@H](CCCNC(=N)N)NC(=O)[C@H](CCCCNC(=O)COCCOCCNC(=O)COCCOCCNC(=O)CC[C@H](NC(=O)CCCCCCCCCCCCCCCCC(=O)O)C(=O)O)NC(=O)[C@H](CCCNC(=N)N)NC(=O)[C@H](CC(=O)O)NC(=O)[C@H](CC(C)C)NC(=O)[C@](C)(Cc1ccccc1)NC(=O)[C@H](CCCCN)NC(=O)[C@H](CO)NC(=O)[C@@H](NC(=O)[C@H](CC(=O)O)NC(=O)[C@H](CO)NC(=O)[C@@H](NC(=O)[C@H](Cc1ccccc1)NC(=O)[C@@H](NC(=O)CNC(=O)[C@H](CCC(N)=O)NC(=O)C(C)(C)NC(=O)[C@@H](N)Cc1c[nH]cn1)[C@@H](C)O)[C@@H](C)O)C(C)C)C(C)C)C(=O)N[C@@H](CC(C)C)C(=O)NC(C)(C)C(=O)N[C@@H](CCC(=O)O)C(N)=O
B2: Peptide 437 (peptide)
peptide: H[Aib]QGTFTSDVSK[αMeF]LDRK([AEEA-AEEA-γGlu-C20 diacid])RAQDFVRWLV[Aib]E-NH2
modifications: N-terminus assumed
SMILES: CC(C)C[C@H](NC(=O)[C@H](Cc1c[nH]c2ccccc12)NC(=O)[C@H](CCCNC(=N)N)NC(=O)[C@@H](NC(=O)[C@H](Cc1ccccc1)NC(=O)[C@H](CC(=O)O)NC(=O)[C@H](CCC(N)=O)NC(=O)[C@H](C)NC(=O)[C@H](CCCNC(=N)N)NC(=O)[C@H](CCCCNC(=O)COCCOCCNC(=O)COCCOCCNC(=O)CC[C@H](NC(=O)CCCCCCCCCCCCCCCCCCC(=O)O)C(=O)O)NC(=O)[C@H](CCCNC(=N)N)NC(=O)[C@H](CC(=O)O)NC(=O)[C@H](CC(C)C)NC(=O)[C@](C)(Cc1ccccc1)NC(=O)[C@H](CCCCN)NC(=O)[C@H](CO)NC(=O)[C@@H](NC(=O)[C@H](CC(=O)O)NC(=O)[C@H](CO)NC(=O)[C@@H](NC(=O)[C@H](Cc1ccccc1)NC(=O)[C@@H](NC(=O)CNC(=O)[C@H](CCC(N)=O)NC(=O)C(C)(C)NC(=O)[C@@H](N)Cc1c[nH]cn1)[C@@H](C)O)[C@@H](C)O)C(C)C)C(C)C)C(=O)N[C@H](C(=O)NC(C)(C)C(=O)N[C@@H](CCC(=O)O)C(N)=O)C(C)C
B3: Peptide 438 (peptide)
peptide: H[Aib]QGTFTSDVSK[αMeF]LDKK([AEEA-AEEA-γGlu-C18 diacid])RAQDFVRWLEA[Aib]G-NH2
modifications: N-terminus assumed
SMILES: CC(C)C[C@H](NC(=O)[C@H](Cc1c[nH]c2ccccc12)NC(=O)[C@H](CCCNC(=N)N)NC(=O)[C@@H](NC(=O)[C@H](Cc1ccccc1)NC(=O)[C@H](CC(=O)O)NC(=O)[C@H](CCC(N)=O)NC(=O)[C@H](C)NC(=O)[C@H](CCCNC(=N)N)NC(=O)[C@H](CCCCNC(=O)COCCOCCNC(=O)COCCOCCNC(=O)CC[C@H](NC(=O)CCCCCCCCCCCCCCCCC(=O)O)C(=O)O)NC(=O)[C@H](CCCCN)NC(=O)[C@H](CC(=O)O)NC(=O)[C@H](CC(C)C)NC(=O)[C@](C)(Cc1ccccc1)NC(=O)[C@H](CCCCN)NC(=O)[C@H](CO)NC(=O)[C@@H](NC(=O)[C@H](CC(=O)O)NC(=O)[C@H](CO)NC(=O)[C@@H](NC(=O)[C@H](Cc1ccccc1)NC(=O)[C@@H](NC(=O)CNC(=O)[C@H](CCC(N)=O)NC(=O)C(C)(C)NC(=O)[C@@H](N)Cc1c[nH]cn1)[C@@H](C)O)[C@@H](C)O)C(C)C)C(C)C)C(=O)N[C@@H](CCC(=O)O)C(=O)N[C@@H](C)C(=O)NC(C)(C)C(=O)NCC(N)=O

Each binder was assayed against human glucagon receptor (human, UniProt P47871) (assay: cell-based or functional assay).

cAMP production EC50 [nM]	Binder
0.0577	B1
0.0969	B2
0.0689	B3

What follows are binders tested against human GLP-1 receptor (human, UniProt P43220) (assay: cell-based or functional assay).

cAMP production EC50 [nM]	Binder
0.0307	B1
0.0269	B2
0.0179	B3
